One experiment concerns the target Fluo-IIa (Streptococcus pyogenes). Nature of the experiment: fluorescence polarization. On the technique in general: In fluorescence polarisation assays a small probe gives low polarisation when free and higher when bound to something large.
In a further experiment the target is Fluo-Ia (Streptococcus pyogenes). Nature of the experiment: fluorescence polarization.

Usually Kd stands for the concentration at which binding is half-saturated. The low end stands for tighter binding, the high end for weaker binding.

B1: Epsilon antitoxin (protein)
chain: AVTYEKTFEIEIINELSASVYNRVLNYVLNHELNKNDSQLLEVNLLNQLKLAKRVNLFDYSLEELQAVHEYWRSMNRYSKQVLNKEKVA
B1: the Kd turned out to be 170 nM with Fluo-IIa and 74.5 nM in the experiment with Fluo-Ia.
